Laboratory results from paper PMC3551926, “Dact2 Represses PITX2 Transcriptional Activation and Cell Proliferation through Wnt/beta-Catenin Signaling during Odontogenesis” (PLoS ONE, 2013).

Target: GST-PITX2A-FL (full length) (UniProt Q99697-3 1-271)
Assay: cell-based or functional assay

luciferase reporter driven by the Amelx 2.2 kb promoter in cells co-transfected with PITX2A and Dact2: fold activation by PITX2A with Dact2 (∼22-fold without Dact2): 14 fold activation
B1: Dact2, purified bacterially expressed protein (natural protein, mouse, UniProt Q7TN08 1-757, looked up)
chain: MWAPSGQGPAGWDRRRVGARLRAALAGLQELQGLRATQQARVRGALGLHPAPGPRGQELRLEAALTALREQLSRLRRQDAGLKTHLDQLDQQISELQLDVSRSSCEALDSDSRPSSGFYELSDAGSCSLSTSCASVCSDRLSPSLGSWLPVFQPSKSRSGIGDWRPRSADETTVPAWSPQLTEDSRLLHGAEGTGRLTGMFRPRPVSTGDLERVLPADVGLQRAGTDAAHLLGQGIEIPAHALDPTYQRDLVARGGQEVYPYPSPLHAVALQSPLFALPKEAPCFDICSPPQEPPLVPVDENRTQPEPIRELGSAEAYIHRLLHLRGQELPLRDVGQEQGGDTAAFPPKPCGQRSESTCQLEKQACGADRGGLKLGRGAAKDSLKQHGPVSLVGAEPLSSPLKEETIPWNPCVHGDNTVGSSPCSQAQQPLNDCGQGPVLSPSRVLGTESPPLAPEPFAYTSCTTGETSPVKLRMGFSQNKAVKVRRRVSEKVPRLGKQLPPQPERQRVTERDPSRPHQGGLSRRPTLAREPPGRSCSESTLYPVPFLVPVVVAQRESYPTSPQAFFPMEAALLSSAARRKQRRWQSTMEISAKAGSVSQPGPSMGLPRSPAKRGSGPRAQSRPTLARQDACARCESDPSEHSADCTSLYHSTIAETSEDEEASDHTANRFGDESSSNDSEGCFRGSRRRLAIGSAEAGQGGWAWPRVPPQQPSRAPGNTRPPLPPVPKLCRIKASKALKKKIRRFQPAALKVMTMV
